# Measured values taken from patent US20120316071A1 (published 2012).
# Residue numbers refer to the chain shown, from its start. Names may count otherwise.
# B1: Fab VH5-51_IGHD5-18*01>3_IGHJ4*01 G100K/G104T (H:KT) & V3-4_IGLJ1*01 S96M (Fab, V domains shown)
# VH: EVQLVQSGAEVKKPGESLKISCKGSGYSFTSYWIGWVRQMPGKGLEWMGIIYPGDSDTRYSPSFQGQVTISADKSISTAYLQWSSLKASDTAMYYCARRKYSYTYDYFDYWGQGTLVTVSS
# VL: QTVVTQEPSFSVSPGGTVTLTCGLSSGSVSTSYYPSWYQQTPGQAPRTLIYSTNTRSSGVPDRFSGSILGNKAALTITGAQADDESDYYCVLYMGMGISYVFGTGTKVTVL
# notes: Fab format: CH1 with His6 and Flag tags, and lambda CL, from the vectors; also called G100K/G104T & S96M
# B2: Fab VH5-51_IGHD5-18*01>3_IGHJ4*01 G100K/G104T (H:KT) & V3-4_IGLJ1*01 (Fab, V domains shown)
# VH: B1 VH
# VL: B1 VL with M96S
# notes: Fab format: CH1 with His6 and Flag tags, and lambda CL, from the vectors; also called KT double mutant; H:KT & L:wt
# B3: Fab VH5-51_IGHD5-18*01>3_IGHJ4*01 G100K/G104T (H:KT) & V3-4_IGLJ1*01 S96E (Fab, V domains shown)
# VH: B1 VH
# VL: B1 VL with M96E
# notes: Fab format: CH1 with His6 and Flag tags, and lambda CL, from the vectors; also called G100K/G104T & S96E
# B4: Fab VH5-51_IGHD5-18*01>3_IGHJ4*01 G100K/G104T (H:KT) & V3-4_IGLJ1*01 S96L (Fab, V domains shown)
# VH: B1 VH
# VL: B1 VL with M96L
# notes: Fab format: CH1 with His6 and Flag tags, and lambda CL, from the vectors; also called G100K/G104T & S96L
# B5: Fab VH5-51_IGHD5-18*01>3_IGHJ4*01 G100K/G104T (H:KT) & V3-4_IGLJ1*01 S96P (Fab, V domains shown)
# VH: B1 VH
# VL: B1 VL with M96P
# notes: Tested as a Fab made in E. coli; The heavy chain vector (plasmid A) adds CH1 with His6 and Flag tags; the lambda light chain vector (plasmid E) adds CL; also called G100K/G104T & S96P
# B6: Fab VH5-51_IGHD5-18*01>3_IGHJ4*01 G100K/G104T (H:KT) & V3-4_IGLJ1*01 S96A (Fab, V domains shown)
# VH: B1 VH
# VL: B1 VL with M96A
# notes: Fab format: CH1 with His6 and Flag tags, and lambda CL, from the vectors; also called G100K/G104T & S96A
# B7: Fab VH5-51_IGHD5-18*01>3_IGHJ4*01 G100K/G104T (H:KT) & V3-4_IGLJ1*01 S96R (Fab, V domains shown)
# VH: B1 VH
# VL: B1 VL with M96R
# notes: Fab format: CH1 with His6 and Flag tags, and lambda CL, from the vectors; also called G100K/G104T & S96R
# B8: Fab VH5-51_IGHD5-18*01>3_IGHJ4*01 G100K/G104T (H:KT) & V3-4_IGLJ1*01 S96V (Fab, V domains shown)
# VH: B1 VH
# VL: B1 VL with M96V
# notes: Fab format: CH1 with His6 and Flag tags, and lambda CL, from the vectors; also called G100K/G104T & S96V
# B9: Fab VH1-46_IGHD6-6*01_IGHJ1*01 S102A/S103P/S104F/H111F & L6_IGKJ1*01 (Fab, V domains shown)
# VH: QVQLVQSGAEVKKPGASVKVSCKASGYTFTSYYMHWVRQAPGQGLEWMGIINPSGGSTSYAQKFQGRVTMTRDTSTSTVYMELSSLRSEDTAVYYCAREEYAPFSAEYFQFWGQGTLVTVSS
# VL: not shown
# notes: also called H:APFF & L:wt; APFF
# B10: Fab VH1-46_IGHD6-6*01_IGHJ1*01 S102A/S103P/S104F/H111F & L6_IGKJ1*01 N53A (Fab, V domains shown)
# VH: B9 VH
# VL: EIVLTQSPATLSLSPGERATLSCRASQSVSSYLAWYQQKPGQAPRLLIYDASARATGIPARFSGSGSGTDFTLTISSLEPEDFAVYYCQQRSNWPPWTFGQGTKVEIKR
# notes: also called APFF & L6_IGKJ1*01 N53A
# B11: Fab VH1-46_IGHD6-6*01_IGHJ1*01 S102A/S103P/S104F/H111F & L6_IGKJ1*01 R54A (Fab, V domains shown)
# VH: B9 VH
# VL: B10 VL with A53N, R54A
# notes: also called APFF & L6_IGKJ1*01 R54A
# B12: Fab VH1-46_IGHD6-6*01_IGHJ1*01 S102A/S103P/S104F/H111F & L6_IGKJ1*01 A55T (Fab, V domains shown)
# VH: B9 VH
# VL: B10 VL with A53N, A55T
# notes: also called APFF & L6_IGKJ1*01 A55T
# B13: Fab VH1-46_IGHD6-6*01_IGHJ1*01 S102A/S103P/S104F/H111F & L6_IGKJ1*01 A51T (Fab, V domains shown)
# VH: B9 VH
# VL: B10 VL with A51T, A53N
# notes: also called APFF & L6_IGKJ1*01 A51T
# B14: Fab VH1-46_IGHD6-6*01_IGHJ1*01 S102A/S103P/S104F/H111F & L6_IGKJ1*01 S52A (Fab, V domains shown)
# VH: B9 VH
# VL: B10 VL with S52A, A53N
# notes: also called APFF & L6_IGKJ1*01 S52A
# B15: Fab VH1-46_IGHD6-6*01_IGHJ1*01 S102A/S103P/S104F/H111F & L6_IGKJ1*01 T56A (Fab, V domains shown)
# VH: B9 VH
# VL: B10 VL with A53N, T56A
# notes: also called APFF & L6_IGKJ1*01 T56A
# B16: Fab VH1-46_IGHD6-6*01_IGHJ1*01 S102A/S103P/S104F/H111F & L6_IGKJ1*01 D50A (Fab, V domains shown)
# VH: B9 VH
# VL: B10 VL with D50A, A53N
# notes: also called APFF & L6_IGKJ1*01 D50A
# B17: Fab VH1-46_IGHD6-6*01_IGHJ1*01 S102A/S103P/S104F/H111F (APFF) & L6_IGKJ1*01 S31L (Fab, V domains shown)
# VH: B9 VH
# VL: B10 VL with S31L, A53N
# notes: Tested as Fab (CH1 with His6/Flag tags, kappa CL) made in E. coli; also called APFF / S31L
# B18: Fab VH1-46_IGHD6-6*01_IGHJ1*01 S102A/S103P/S104F/H111F (APFF) & L6_IGKJ1*01 S31P (Fab, V domains shown)
# VH: B9 VH
# VL: B10 VL with S31P, A53N
# notes: Tested as Fab (CH1 with His6/Flag tags, kappa CL) made in E. coli; also called APFF / S31P
# B19: Fab VH1-46_IGHD6-6*01_IGHJ1*01 S102A/S103P/S104F/H111F (APFF) & L6_IGKJ1*01 S31V (Fab, V domains shown)
# VH: B9 VH
# VL: B10 VL with S31V, A53N
# notes: Tested as Fab (CH1 with His6/Flag tags, kappa CL) made in E. coli; also called APFF / S31V
# B20: Fab VH1-46_IGHD6-6*01_IGHJ1*01 S102A/S103P/S104F/H111F (APFF) & L6_IGKJ1*01 S31M (Fab, V domains shown)
# VH: B9 VH
# VL: B10 VL with S31M, A53N
# notes: Tested as Fab (CH1 with His6/Flag tags, kappa CL) made in E. coli; also called APFF / S31M
# Target: T1, Recombinant Human DLL4 (R&D Systems Cat#1506-D4/CF) (human, UniProt Q9NR61 27-524)
# T1 construct: Bought recombinant human DLL4; also called delta-like protein 4; rHuman DLL4
# Test: ELISA on coated DLL4, 100 nM Fab
row,Binder,ELISA Signal [100 nM Fab]
1,B1,0.02
2,B2,0.01
3,B3,0.02
4,B4,0.02
5,B5,0.03
6,B6,0
7,B7,0.02
8,B8,0.01

# Target: T1, Recombinant Human DLL4 (R&D Systems …)
# Test: ECL (MSD) binding assay, immobilised DLL4, 10 nM Fab;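 further: fab binding read as electrochemiluminescence via a TAG-labelled detection antibody, 1 h incubations at 20 °C, antigen signal compared with each well's blank, ratio of at least 4 scored as binder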
row,Binder,ECL Signal [10 nM Fab]
1,B1,61700
2,B2,36600
3,B3,57000
4,B4,40000
5,B5,54000
6,B6,1130
7,B7,54300
8,B8,42300

# Target: T2, Recombinant Human DLL4 (delta-like protein 4) (human, UniProt Q9NR61 27-524)
# T2 construct: also called rHuman DLL4; Delta-like 4
# Test: ECL (MSD) binding assay, DLL4 immobilised, Fab at 10 nM
row,Binder,Signal [10 nM Fab]
1,B9,13500
2,B10,14200
3,B11,11600
4,B12,13200
5,B13,2850
6,B14,19300
7,B15,7260
8,B16,4230

# Target: T3, rHuman ErbB2/Fc Chimera, CF (R&D Systems Cat#1129-ER) (human, UniProt P04626 23-652)
# T3 construct: Bought recombinant protein; also called human epidermal growth factor 2 receptor
# Test: ECL multispot (MSD) binding assay, antigen spotted on plate;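 further: purified Fab incubated 1 h at 20 °C on antigen spots, detected with TAG-labelled antibody, electrochemiluminescence compared with each well's blank, signal-to-blank ratio ≥4 counted as hit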
row,Binder,ECL signal
1,B17,288
2,B18,372
3,B19,300
4,B20,352

# Target: T4, rHuman EGF R/Fc Chimera, CF (R&D Systems Cat#344-ER) (human, UniProt P00533 25-645)
# T4 construct: Bought recombinant protein; also called epidermal growth factor receptor
# Test: as above
row,Binder,ECL signal
1,B17,375
2,B18,488
3,B19,363
4,B20,380

# Target: T5, rHuman HGF R/c-MET/Fc Chimera, CF (R&D Systems Cat#358-MT/CF) (human, UniProt P08581 25-932)
# T5 construct: Bought recombinant protein; also called HGF R/Fc; hepatocyte growth factor receptor
# Test: as above
# T5 sequence (P08581 25-932, change not shown): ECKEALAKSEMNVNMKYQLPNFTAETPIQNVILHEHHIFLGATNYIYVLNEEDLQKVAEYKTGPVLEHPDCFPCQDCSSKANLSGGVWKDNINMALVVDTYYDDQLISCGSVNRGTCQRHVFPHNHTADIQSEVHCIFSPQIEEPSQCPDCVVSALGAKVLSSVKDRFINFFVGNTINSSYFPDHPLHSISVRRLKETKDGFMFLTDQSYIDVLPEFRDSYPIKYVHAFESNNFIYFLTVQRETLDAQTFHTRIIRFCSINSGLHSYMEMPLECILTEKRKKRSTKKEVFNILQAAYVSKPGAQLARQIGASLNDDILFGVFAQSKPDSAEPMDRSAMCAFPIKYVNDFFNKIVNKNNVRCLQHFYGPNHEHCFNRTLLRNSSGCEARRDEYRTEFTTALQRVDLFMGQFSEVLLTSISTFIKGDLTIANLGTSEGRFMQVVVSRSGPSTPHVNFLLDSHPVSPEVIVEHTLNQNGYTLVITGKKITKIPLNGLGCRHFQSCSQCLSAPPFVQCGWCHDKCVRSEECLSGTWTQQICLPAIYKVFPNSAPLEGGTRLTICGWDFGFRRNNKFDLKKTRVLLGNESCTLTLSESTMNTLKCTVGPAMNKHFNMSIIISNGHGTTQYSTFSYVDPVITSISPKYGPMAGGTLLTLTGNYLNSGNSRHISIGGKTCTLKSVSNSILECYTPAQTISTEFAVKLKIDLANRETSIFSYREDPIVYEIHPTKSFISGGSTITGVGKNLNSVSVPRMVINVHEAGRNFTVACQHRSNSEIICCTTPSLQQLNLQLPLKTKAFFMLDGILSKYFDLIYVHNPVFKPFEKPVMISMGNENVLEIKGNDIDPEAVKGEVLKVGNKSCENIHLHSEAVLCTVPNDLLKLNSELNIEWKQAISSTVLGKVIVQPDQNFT
row,Binder,ECL signal
1,B17,319
2,B18,431
3,B19,288
4,B20,293

# Target: T6, rHuman Notch-1/Fc Chimera, CF (R&D Systems Cat#3647-TK) (human, UniProt P46531 19-526)
# T6 construct: Bought recombinant protein
# Test: as above
row,Binder,ECL signal
1,B17,365
2,B18,461
3,B19,374
4,B20,474

# Target: T7, rHuman CD44/Fc Chimera, CF (R&D Systems Cat#3660-CD) (human, UniProt P16070 21-220)
# T7 construct: Bought recombinant protein
# Test: as above
row,Binder,ECL signal
1,B17,371
2,B18,466
3,B19,384
4,B20,488

# Target: T8, rHuman IGF-1 sR, (IGF-1 sR), CF (R&D Systems Cat#391-GR) (human, UniProt P08069 31-932)
# T8 construct: Bought recombinant soluble receptor; also called insulin-like growth factor-1 soluble receptor
# Test: as above
row,Binder,ECL signal
1,B17,405
2,B18,404
3,B19,335
4,B20,445

# Target: T9, rHuman P-Cadherin/Fc Chimera, CF (R&D Systems Cat#861-PC) (human, UniProt P22223 108-654)
# T9 construct: Bought recombinant protein
# Test: as above
row,Binder,ECL signal
1,B17,346
2,B18,493
3,B19,360
4,B20,510

# Target: T10, rHuman Erythropoietin R/Fc Chimera, CF (R&D Systems Cat#963-ER) (human, UniProt P19235 25-250)
# T10 construct: Bought recombinant protein; also called EPO R; EPO R/Fc
# T10 sequence (looked up): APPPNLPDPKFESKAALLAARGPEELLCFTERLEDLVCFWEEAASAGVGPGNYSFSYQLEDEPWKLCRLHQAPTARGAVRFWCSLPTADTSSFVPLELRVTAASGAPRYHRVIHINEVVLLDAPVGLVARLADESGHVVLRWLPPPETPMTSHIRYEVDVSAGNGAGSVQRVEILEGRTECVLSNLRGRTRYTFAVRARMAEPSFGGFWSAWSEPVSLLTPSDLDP
# Test: as above
row,Binder,ECL signal
1,B17,427
2,B18,594
3,B19,509
4,B20,573

# Target: T11, Recombinant Human DLL4 (R&D Systems Cat#1506-D4/CF) (human, UniProt Q9NR61 27-524)
# T11 construct: Bought recombinant protein; also called delta-like protein 4; rHuman DLL4
# Test: as above
row,Binder,ECL signal
1,B17,155000
2,B18,53300
3,B19,176000
4,B20,167000
